Experimental data published in patent publication US20140212406A1.

What was measured:
[1] = molecular target: N-methyl-D-aspartate receptor on primary cultured mouse cortical neurons (mouse) (UniProt P35438); assay: cell-based or functional assay
fibrin = assay: binding of tPA variants to a solid-phase fibrin surface on PVC plates (3 independent experiments, 12 doses)

Kd (fibrin) [nM] | Substance | neuronal death (LDH release, cortical neurons, 50 uM NMDA, 0.3 uM tPA) [1] [%] | potentiation of NMDAR-mediated excitotoxicity (LDH release, cortical neurons, 50 uM NMDA, 0.3 uM tPA) [1] [%]
 | rat wild type tPA (Rattus norvegicus), 6xHis-tagged (from UniProt P19637 33-559) (enzyme) | 71 | 39
0.82 | rat tPA with complete deletion of its K2 domain (deletion of the amino acids 181 to 262), 6xHis-tagged (from UniProt P19637 33-212; P19637 295-559) (enzyme) |  | 
